Reference: patent US20080138352A1 (INSTITUT PASTEUR, published 2008)

Biological target: the molecule itself
Assay: size exclusion chromatography, Superdex 75, pH 6.0 (self-association, homodimer)

B1: recombinant Trypanosoma cruzi proline racemase TcPRACA (rTcPRACA), C-terminal His6-tagged (enzyme)
chain: GQEKLLFDQKYKIIKGEKKEKKKNQRANRREHQQKREIMRFKKSFTCIDMHTEGEAARIVTSGLPHIPGSNMAEKKAYLQENMDYLRRGIMLEPRGHDDMFGAFLFDPIEEGADLGMVFMDTGGYLNMCGHNSIAAVTAAVETGIVSVPAKATNVPVVLDTPAGLVRGTAHLQSGTESEVSNASIINVPSFLYQQDVVVVLPKPYGEVRVDIAFGGNFFAIVPAEQLGIDISVQNLSRLQEAGELLRTEINRSVKVQHPQLPHINTVDCVEIYGPPTNPEANYKNVVIFGNRQADRSPCGTGTSAKMATLYAKGQLRIGETFVYESILGSLFQGRVLGEERIPGVKVPVTKDAEEGMLVVTAEITGKAFIMGFNTMLFDPTDPFKNGFTLKQ
notes: the entry below describes its self-association into a homodimer; also called TcPA45; not shown: C-terminal six-histidine tag from pET28b(+)
  binding result: binds
